Assay results taken from patent US12427210B2 (3B PHARMACEUTICALS GMBH, dated 2025).

Assays:
[1] = biological target: Recombinant human FAP (R&D systems, #3715-SE) (human); experiment: SPR (Biacore T200), rhFAP captured by anti-FAP antibody, single cycle kinetics; category A = pKD values >8.0
[2] = biological target: human fibroblast activation protein (FAP) on human WI-38 fibroblasts (human); experiment: competitive FACS binding on FAP-expressing WI-38 cells against 3 nM Cy5-labeled compound; category A = pIC50 values >8.0

Chain of Recombinant human FAP (R&D systems, #3715-SE) (human) (chain, as listed by the source limits assumed): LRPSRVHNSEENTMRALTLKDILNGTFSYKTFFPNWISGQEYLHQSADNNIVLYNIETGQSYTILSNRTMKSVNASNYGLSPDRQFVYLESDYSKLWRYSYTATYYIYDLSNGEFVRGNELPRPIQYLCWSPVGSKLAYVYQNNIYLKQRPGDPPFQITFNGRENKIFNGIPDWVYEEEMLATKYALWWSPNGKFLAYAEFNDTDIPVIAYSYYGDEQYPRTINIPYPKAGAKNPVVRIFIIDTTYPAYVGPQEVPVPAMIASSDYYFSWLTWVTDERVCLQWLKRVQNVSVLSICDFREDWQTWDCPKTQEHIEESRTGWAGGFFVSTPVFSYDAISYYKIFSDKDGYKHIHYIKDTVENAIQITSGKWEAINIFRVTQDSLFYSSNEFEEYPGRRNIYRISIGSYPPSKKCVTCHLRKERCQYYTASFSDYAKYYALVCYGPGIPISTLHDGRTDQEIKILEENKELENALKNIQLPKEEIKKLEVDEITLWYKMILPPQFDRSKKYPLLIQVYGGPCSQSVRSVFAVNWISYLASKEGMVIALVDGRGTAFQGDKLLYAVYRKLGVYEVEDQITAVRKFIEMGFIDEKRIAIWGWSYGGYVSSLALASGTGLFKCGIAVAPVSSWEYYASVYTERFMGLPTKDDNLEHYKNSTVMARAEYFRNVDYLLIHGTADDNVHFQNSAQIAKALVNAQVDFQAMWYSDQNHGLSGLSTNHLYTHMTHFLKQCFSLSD

Row | Binder | pKD Category [1] [pKD] | pIC50 Category (FACS) [2] [pIC50]
1 | CPPTQFCD (N-terminal hexanoyl (Hex); Cys1 and Cys7 cyclised through tMeBn carrying GaDOTA-PP (gallium complex); C-terminal amide) [Hex-[Cys(tMeBn(GaDOTA-PP))-Pro-Pro-Thr-Gln-Phe-Cys]-Asp-NH2 (3BP-3592)] | > 8 | > 8
2 | CPPTQFC (N-terminal hexanoyl (Hex); Cys1 and Cys7 cyclised through tMeBn carrying InDOTA-AET (indium complex); free C-terminal acid (-OH)) [Hex-[Cys(tMeBn(InDOTA-AET))-Pro-Pro-Thr-Gln-Phe-Cys]-OH (3BP-3623)] | > 8 | 
3 | CPPTQFCD (N-terminal hexanoyl (Hex); Cys1 and Cys7 cyclised through tMeBn carrying EuDOTA-PP (europium complex); C-terminal amide) [Hex-[Cys(tMeBn(EuDOTA-PP))-Pro-Pro-Thr-Gln-Phe-Cys]-Asp-NH2 (3BP-3661)] |  | > 8
4 | CPPTQFC (N-terminal hexanoyl (Hex); Cys1 and Cys7 cyclised through tMeBn carrying LuDOTA-AET (lutetium complex); free C-terminal acid (-OH)) [Hex-[Cys(tMeBn(LuDOTA-AET))-Pro-Pro-Thr-Gln-Phe-Cys]-OH (3BP-3624)] | > 8 | 
5 | CPPTQFC (N-terminal hexanoyl (Hex); Cys1 and Cys7 cyclised through tMeBn carrying DOTA-AET; free C-terminal acid (-OH)) [Hex-[Cys(tMeBn(DOTA-AET))-Pro-Pro-Thr-Gln-Phe-Cys]-OH (3BP-3554)] | > 8 | 
6 | CPPTQFCD (N-terminal hexanoyl (Hex); Cys1 and Cys7 cyclised through tMeBn carrying LuDOTA-PP (lutetium complex); C-terminal amide) [Hex-[Cys(tMeBn(LuDOTA-PP))-Pro-Pro-Thr-Gln-Phe-Cys]-Asp-NH2 (3BP-3591)] | > 8 | > 8
7 | CPPTQFCD (N-terminal hexanoyl (Hex); Cys1 and Cys7 cyclised through tMeBn carrying DOTA-PP; C-terminal amide) [Hex-[Cys(tMeBn(DOTA-PP))-Pro-Pro-Thr-Gln-Phe-Cys]-Asp-NH2 (3BP-3407)] | > 8 | > 8
8 | CPPTQFCD (N-terminal hexanoyl (Hex); Cys1 and Cys7 cyclised through tMeBn carrying InDOTA-PP (indium complex); C-terminal amide) [Hex-[Cys(tMeBn(InDOTA-PP))-Pro-Pro-Thr-Gln-Phe-Cys]-Asp-NH2 (3BP-3590)] | > 8 | > 8
9 | CPPTQFC (N-terminal hexanoyl (Hex); Cys1 and Cys7 cyclised through tMeBn carrying GaDOTA-AET (gallium complex); free C-terminal acid (-OH)) [Hex-[Cys(tMeBn(GaDOTA-AET))-Pro-Pro-Thr-Gln-Phe-Cys]-OH (3BP-3949)] | > 8 | 
